Measured values reported in patent US20230250188A1 (NATIONAL UNIVERSITY CORPORATION KOCHI UNIVERSITY, published 2023).
Blank lines part the entries; values can stand above or below the binder they belong to.

Columns and labels:
[1] = molecular target: T1, human GPC1 on the surface of GPC1-positive cancer cells (TE8, TE14, BxPC-3) (human, UniProt P35052 24-530); assay: cell-based or functional assay
T1 sequence: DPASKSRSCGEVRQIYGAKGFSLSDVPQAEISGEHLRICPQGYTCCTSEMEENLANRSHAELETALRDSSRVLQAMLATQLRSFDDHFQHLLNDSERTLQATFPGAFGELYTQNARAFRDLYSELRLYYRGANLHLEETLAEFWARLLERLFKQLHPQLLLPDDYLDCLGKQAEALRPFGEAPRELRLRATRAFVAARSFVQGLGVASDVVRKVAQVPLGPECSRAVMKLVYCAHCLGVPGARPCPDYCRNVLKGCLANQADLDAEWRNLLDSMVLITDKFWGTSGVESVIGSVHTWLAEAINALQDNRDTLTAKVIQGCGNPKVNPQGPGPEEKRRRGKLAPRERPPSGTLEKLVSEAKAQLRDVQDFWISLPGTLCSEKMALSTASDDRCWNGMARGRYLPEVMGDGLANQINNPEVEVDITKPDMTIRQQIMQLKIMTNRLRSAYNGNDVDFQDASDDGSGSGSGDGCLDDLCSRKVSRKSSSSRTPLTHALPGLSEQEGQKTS

[2] = molecular target: T2, recombinant human GPC1 protein (R&D Systems) (human, UniProt P35052 24-530); assay: SPR (Biacore 8K); antibody captured by anti-human IgG (Fc) on a CM5 chip, recombinant human GPC1 flowed over
T2 construct: Bought recombinant protein (R&D Systems); also called human GPC-1 antigen; Glypican-1
T2 sequence: T1 sequence
Protocol: The mouse anti-human-GPC1 monoclonal antibody was humanized (subclass: IgG4), and the obtained twenty clones (T1, T2, T3, T7, T8, T10, T11, T22, T26, T28, T29, T31, T32, T33, T34, T36, T43, T56, T57, T59) were prepared. An anti-human IgG (Fc) was immobilized on an sCM5 sensor chip (GE Healthcare) using Human antibody capture kit (GE Healthcare), and the affinity of each of these clones to a recombinant human GPC1 protein (R&D Systems) was measured using Biacore (registered trademark) 8K (GE Healthcare).

[3] = molecular target: T1, human GPC1 on the surface of …; assay: flow cytometry on TE8 cells, antibody titration, FITC anti-human IgG as secondary antibody
Protocol: (§1) The measurement was performed with FACS CantoII (BD) using the human/mouse chimeric anti-GPC1 antibody (clone 01a033) and the humanized anti-GPC1 antibody (clone T2) as primary antibodies at various concentrations and FITC labeled anti-human-IgG-FITC (Jackson Immuno Research, Catalog No. 109-095-098) as a secondary antibody, and the measurement data were analyzed using BD FACS Diva Software (BD).

MC38-mGPC1 [4] = molecular target: T3, MC38-mGPC1; assay: flow cytometry on MC38-mGPC1 cells (the sheet names clone 01a033 and mIgG2a; paragraph 327 names clone T2 with FITC anti-human IgG)
T3 construct: also called mGPC1-MC38; mouse GPC1 stably expressed on the mouse colorectal cancer cell line MC38
T3 mouse Glypican-1: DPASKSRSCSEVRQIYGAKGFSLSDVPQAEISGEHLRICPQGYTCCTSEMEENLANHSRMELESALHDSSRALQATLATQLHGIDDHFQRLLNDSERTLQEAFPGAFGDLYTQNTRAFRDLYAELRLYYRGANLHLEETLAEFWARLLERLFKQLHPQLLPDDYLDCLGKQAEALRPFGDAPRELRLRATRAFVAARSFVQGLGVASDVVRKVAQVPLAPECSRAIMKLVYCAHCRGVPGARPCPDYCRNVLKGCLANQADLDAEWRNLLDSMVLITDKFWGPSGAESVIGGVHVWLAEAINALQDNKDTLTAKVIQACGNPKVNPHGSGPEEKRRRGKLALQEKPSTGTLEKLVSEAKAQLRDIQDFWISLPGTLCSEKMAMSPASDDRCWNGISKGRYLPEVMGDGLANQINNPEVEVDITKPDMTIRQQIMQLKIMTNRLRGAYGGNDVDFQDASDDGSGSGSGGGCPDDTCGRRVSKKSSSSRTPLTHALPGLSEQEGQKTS

[5] = molecular target: T2, recombinant human GPC1 protein (R&D …); assay: SPR (Biacore 8K); antibody captured by anti-mouse-Fc antibody on the chip, human GPC-1 flowed over
Protocol: The binding affinity of the mouse antibody to human GPC-1 was measured through surface plasmon resonance technique (Biacore (registered trademark) 8K). An anti-mouse-Fc antibody was immobilized on a chip, and the mouse antibody (01a033) was flowed thereon and allowed to bind thereto. After washing, the human GPC-1 was flowed thereon, and the binding constant (Ka) and the dissociation constant (Kd) were measured.

[6] = molecular target: T1, human GPC1 on the surface of …; assay: flow cytometry on BxPC3 cells, antibody titration, FITC anti-human IgG as secondary antibody
Protocol: as §1, with “In the FACS analysis using the antibody, cells of human pancreatic cancer cell line (BxPC-3) were used as GPC1-positive cells. The” for “The”, “the” for “the human/mouse chimeric anti-GPC1 antibody (clone 01a033) and the”, “T2) and the humanized GPC1-ADC (MMAE)” for “T2)”
The influence of conjugation of a payload with the humanized anti-GPC1 antibody (T2) on the antigen affinity was evaluated by analyzing the antibody concentration-dependent binding ability with FACS using GPC1 expression-positive BxPC3 cells.

MC38-mGPC1 [7] = molecular target: T3, MC38-mGPC1; assay: cell-based or functional assay
[8] = molecular target: T1, human GPC1 on the surface of …; assay: cell-based or functional assay; remark: listed apart in the source
[9] = molecular target: T1, human GPC1 on the surface of …; assay: cell-based or functional assay; remark: listed apart in the source

Kd [2]: 10.2 nM
koff [2]: 0.00309 s⁻¹
kon [2]: 302000 M⁻¹ s⁻¹
Kd [3]: 2.38 nM
B1: human/mouse chimeric anti-GPC1 antibody (clone 01a033) (antibody, human IgG4 S228P, kappa, V domains shown)
VH: QVQLKQSGPELVKPGASVKISCKASGYSFTGYYMHWVKQSPEKSLEWIGEINPSTGDTTYNQKFKAKATLTVDKSSSTAYMQLKSLTSEDSAVYYCAREKRDDGVFAYWGQGTLVTVSS
VL: DIVMSQSPKSMSMSVGERVALSCKASENVGTYVSWYQQKPEQSPKLLIYGASNRYTGVPDRFTGSGSATDFTLTISSVQAEDLADYYCGQSYSYPLTFGAGTKLELKR
notes: also called chimeric mouse antibody (01a033); anti-GPC-1 chimeric antibody (01a033)
IC50 of cytotoxicity on TE14 cells (ATP cell viability, 144 h) with MMAF-linked anti-human-IgG Fab as secondary antibody [1]: 0.071 nM

binding result (MC38-mGPC1 [4]): binds
Kd [5]: 31.6 nM
koff [5]: 0.00388 s⁻¹
kon [5]: 123000 M⁻¹ s⁻¹
B2: anti-GPC-1 mouse monoclonal antibody 01a033 (antibody, V domains shown)
VH: B1 VH
VL: DIVMSQSPKSMSMSVGERVALSCKASENVGTYVSWYQQKPEQSPKLLIYGASNRYTGVPDRFTGSGSATDFTLTISSVQAEDLADYYCGQSYSYPLTFGAGTKLELK
notes: Mouse monoclonal antibody; also called mouse antibody (01a033); mouse anti-GPC1 antibody (clone 01a033)

Kd [2]: 5.2 nM
koff [2]: 0.00125 s⁻¹
kon [2]: 240000 M⁻¹ s⁻¹
Kd [3]: 1.89 nM
Kd [6]: 0.529 nM
B3: humanized anti-GPC1 antibody (clone T2) (antibody, human IgG4 S228P, kappa, V domains shown)
VH: QVQLVQSGAEVKKPGASVKVSCKASGYTFTGYYMHWVRQAPGQGLEWMGEINPSTGDTTYNQKFKARVTMTRDTSTSTVYMELSSLRSEDTAVYYCAREKRDDGVFAYWGQGTLVTVSS
VL: DIVMTQSPSFLSASVGDRVTITCRASQGISSYLVWYQQKPGKPPKLLIYSASVLQSGVPSRFSGRGYGTDFTLTISSLQPEDFATYYCQQSFSIPPVTFGGGTKVEIKR
notes: IgG; also called humanized anti-GPC1 antibody (T2); unlabeled antibody
IC50 of cytotoxicity on TE14 cells (ATP cell viability, 144 h) with MMAF-linked anti-human-IgG Fab as secondary antibody [1]: 0.0361 nM

Kd [2]: 9.8 nM
koff [2]: 0.00227 s⁻¹
kon [2]: 231000 M⁻¹ s⁻¹
B4: humanized anti-GPC1 monoclonal antibody clone T36 (antibody, human IgG4 S228P, kappa, V domains shown)
VH: B3 VH
VL: NIQMTQSPSSLSASVGDRVTITCQASQDISNYLNWYQQRPGKAPQLLIYGASNLERGVPSRFSGSGFGTDFTLTISSVQPEDFATYYCQQAKSYPLTFGGGTKVEIKR
notes: IgG
IC50 of cytotoxicity on TE14 cells (ATP cell viability, 144 h) with MMAF-linked anti-human-IgG Fab as secondary antibody [1]: 0.0459 nM

Kd [2]: 5.07 nM
koff [2]: 0.00118 s⁻¹
kon [2]: 234000 M⁻¹ s⁻¹
B5: humanized anti-GPC1 monoclonal antibody clone T8 (antibody, human IgG4 S228P, kappa, V domains shown)
VH: B3 VH
VL: EIVMTQSPSSVSASVGDRVTITCRTSQSISSYLNWYQLRPGRAPKLLIYAASNLQSGVPSRFSGSGFGTDFTLTISSVQPEDFATYYCQQAKSYPLTFGGGTKVDIKR
notes: IgG
IC50 of cytotoxicity on TE14 cells (ATP cell viability, 144 h) with MMAF-linked anti-human-IgG Fab as secondary antibody [1]: 0.0379 nM

IC50 of growth inhibition of MC38-mGPC1 cells (in-vitro ADC assay) (MC38-mGPC1 [7]): 2.29 nM
IC50 of growth inhibition of Detroit562 cells (in-vitro ADC assay, CellTiter-Glo, 144 h) [8]: 0.724 nM
IC50 of growth inhibition of FaDu cells (in-vitro ADC assay, CellTiter-Glo, 144 h) [8]: 0.3 nM
IC50 of growth inhibition of HeLa cells (in-vitro ADC assay, CellTiter-Glo, 144 h) [8]: 0.259 nM
IC50 of growth inhibition of Ho-1-u-1 cells (in-vitro ADC assay, CellTiter-Glo, 144 h) [9]: 0.329 nM
IC50 of growth inhibition of KON cells (in-vitro ADC assay, CellTiter-Glo, 144 h) [9]: 0.153 nM
Kd [6]: 0.57 nM
B6: humanized GPC1-ADC (MMAE) (antibody, V domains shown)
VH: B3 VH
VL: B3 VL
modifications: MC-vc-PAB-MMAE linked by maleimide to cysteines of the reduced interchain disulfide bonds; DAR 4.0 for the whole antibody
notes: also called humanized anti-GPC1-ADC; humanized anti-GPC1-ADC (MMAE)

Kd [2]: 6.93 nM
koff [2]: 0.0018 s⁻¹
kon [2]: 259000 M⁻¹ s⁻¹
B7: humanized anti-GPC1 monoclonal antibody clone T56 (antibody, human IgG4 S228P, kappa, V domains shown)
VH: B3 VH
VL: DIVMTQSPSTLSASVGDRVTIICRASQSIGPWLAWYQQKSGKAPKLLIYGASNLQSGVPSRFSGSGYGTDFTLTISSLQPEDFATYYCQQTSSAPFTFGPGTKVDIKR
notes: IgG
IC50 of cytotoxicity on TE14 cells (ATP cell viability, 144 h) with MMAF-linked anti-human-IgG Fab as secondary antibody [1]: 0.0501 nM

Kd [2]: 102 nM
koff [2]: 0.0135 s⁻¹
kon [2]: 132000 M⁻¹ s⁻¹
B8: humanized anti-GPC1 monoclonal antibody clone T57 (antibody, human IgG4 S228P, kappa, V domains shown)
VH: B3 VH
VL: EIVMTQSPSSLSASVGDRVTISCRTSQTIRHYLNWYQQKPGKAPKLLIYDASNLKTGVPSRFSGSGSGTSFTLTISSLQPDDFATYYCQQSYSTPRTFGQGTKVEIKR
notes: IgG
IC50 of cytotoxicity on TE14 cells (ATP cell viability, 144 h) with MMAF-linked anti-human-IgG Fab as secondary antibody [1]: 0.0459 nM
